Results taken from PMC5655446.

Target: Vibrio cholerae ApbE (alternative pyrimidine biosynthesis protein), recombinant, without the leader sequence (Vibrio cholerae) (UniProt A5F5Y3)
Sequence (A5F5Y3 18-334): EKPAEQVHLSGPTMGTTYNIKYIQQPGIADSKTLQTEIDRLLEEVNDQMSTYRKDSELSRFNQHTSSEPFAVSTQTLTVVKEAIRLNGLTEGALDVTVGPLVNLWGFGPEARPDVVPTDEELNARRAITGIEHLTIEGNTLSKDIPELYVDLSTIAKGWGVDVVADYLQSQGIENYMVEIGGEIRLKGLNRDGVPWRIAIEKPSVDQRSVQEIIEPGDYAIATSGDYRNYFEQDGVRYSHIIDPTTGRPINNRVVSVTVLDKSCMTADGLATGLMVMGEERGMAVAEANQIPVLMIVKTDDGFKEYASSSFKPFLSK

Vibrio cholerae NqrC (subunit C of Na+-NQR), soluble, without the N-terminal transmembrane helix (domain or fragment)
Km for NqrC in the steady-state flavin transfer activity of ApbE (NqrC varied, FAD 1 mM, pH 9.0): > 100 μM
